# In article PMC12118636:
# Read-outs that look alike come from different tables or passages of the source.
# Legend:
# [1] = target: hNaV1.9 IQ domain peptide (human); assay: ITC
# [2] = target: hNaV1.9 IQ domain peptide (human); assay: ITC; remark: listed apart in the source
substance,measurement,setting,value
Human calmodulin (from UniProt P0DP23 1-149) (natural protein),Kd,[1],37 µM
same,Kd,[2],480 µM
